Measured values published in paper PMC10351740, “ZCCHC3 is a stress granule zinc knuckle protein that strongly suppresses LINE-1 retrotransposition” (PLOS Genetics, 2023).

What was measured:
[1] = biological target: T1, ZCCHC3-FL-7AA (zinc knuckle mutant of ZCCHC3-FL) (human, UniProt Q9NUD5 1-403, C353,366,372,375A | C353,366,372,375A | C353,366,372,375A | C353,366,372,375A | …); assay: co-IP; HEK 293T lysates, FLAG-tagged bait on α-FLAG-M2 antibody bound to Protein G Dynabeads, 3 h at 4°C, 5 washes; endogenous ORF1p detected with polyclonal α-L1Hs-ORF1p; bands quantified with ImageJ (IP/input compared with empty vector); settings: partners not purified
T1 construct: also called zinc-finger mutant ZCCHC3-FL-7AA; source: HEK 293T, transfected, in lysate; not shown: FLAG, C-terminal, kept
T1 sequence (looked up): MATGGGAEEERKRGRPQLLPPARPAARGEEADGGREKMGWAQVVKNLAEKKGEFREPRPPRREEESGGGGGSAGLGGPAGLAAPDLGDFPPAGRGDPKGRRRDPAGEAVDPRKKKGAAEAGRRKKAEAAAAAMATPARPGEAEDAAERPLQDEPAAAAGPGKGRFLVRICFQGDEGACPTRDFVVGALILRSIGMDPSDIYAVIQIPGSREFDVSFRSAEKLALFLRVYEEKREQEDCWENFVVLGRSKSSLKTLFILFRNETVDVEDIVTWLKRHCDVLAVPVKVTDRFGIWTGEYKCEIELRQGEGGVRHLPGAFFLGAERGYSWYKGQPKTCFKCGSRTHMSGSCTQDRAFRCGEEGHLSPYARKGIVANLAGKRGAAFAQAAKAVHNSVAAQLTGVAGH

[2] = biological target: T2, ZCCHC3-FL (Zinc Finger CCHC-Type Containing 3 with C-terminal FLAG epitope tag) (human, UniProt Q9NUD5 1-403); assay: as above; settings: partners not purified
T2 construct: ZCCHC3 (Zinc Finger CCHC-Type Containing 3), human; made by PCR amplification of V5-TEV-ZCCHC3 (Ultimate ORF clone IOH40787); legend calls it the 44 kD full-length ZCCHC3-FL; also called FLAG-tagged ZCCHC3; wild-type ZCCHC3-FL; source: HEK 293T, transfected, in lysate; not shown: FLAG, C-terminal, kept
T2 sequence (looked up): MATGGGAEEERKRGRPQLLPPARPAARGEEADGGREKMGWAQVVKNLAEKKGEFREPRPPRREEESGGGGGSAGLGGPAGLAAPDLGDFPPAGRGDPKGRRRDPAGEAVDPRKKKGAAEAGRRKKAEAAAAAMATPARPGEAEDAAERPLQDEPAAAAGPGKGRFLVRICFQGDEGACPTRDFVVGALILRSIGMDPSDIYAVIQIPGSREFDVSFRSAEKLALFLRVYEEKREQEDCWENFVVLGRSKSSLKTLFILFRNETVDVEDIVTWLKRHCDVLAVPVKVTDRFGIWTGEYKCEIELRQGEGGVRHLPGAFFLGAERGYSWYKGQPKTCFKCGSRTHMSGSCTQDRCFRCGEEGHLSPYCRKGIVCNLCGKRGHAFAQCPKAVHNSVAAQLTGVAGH

B1: endogenous L1 ORF1p (natural protein, human (endogenous in HEK 293T), UniProt Q9UN81 1-338, looked up)
chain: MGKKQNRKTGNSKTQSASPPPKERSSSPATEQSWMENDFDELREEGFRRSNYSELREDIQTKGKEVENFEKNLEECITRITNTEKCLKELMELKTKARELREECRSLRSRCDQLEERVSAMEDEMNEMKREGKFREKRIKRNEQSLQEIWDYVKRPNLRLIGVPESDVENGTKLENTLQDIIQENFPNLARQANVQIQEIQRTPQRYSSRRATPRHIIVRFTKVEMKEKMLRAAREKGRVTLKGKPIRLTADLSAETLQARREWGPIFNILKEKNFQPRISYPAKLSFISEGEIKYFIDKQMLRDFVTTRPALKELLKEALNMERNNRYQPLQNHAKM
notes: LINE-1 ORF1 protein, endogenous in HEK 293T cells; Endogenous ORF1p comes from many L1 loci; also called endogenous ORF1p; source: endogenous, HEK 293T lysate
[1]
  fold reduction against wild-type ZCCHC3-FL (band intensity): 2 fold
[2]
  fold increase over empty vector controls (IP/input band intensity): 5 fold
